Test results from the supplement of paper PMC9876800.

Tested on: peptide library, one residue held at a place counted from the S/T acceptor
Experiment: relative phosphorylation of the sub-library (ratio to the mean residue at this position); higher = residue favoured
Summary of the method: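 In 384-well plates, purified recombinant kinases (human or orthologue constructs) were incubated for 90 min under kinase-specific conditions with 50 μM biotinylated degenerate peptide sub-libraries and 50 μM ATP spiked with γ-32P-ATP. Each sub-library fixed a single residue at one position around a central Ser/Thr. Relative sub-library phosphorylation, measured by phosphorimaging and densitometry of streptavidin membrane spots, is given as a ratio to the mean residue at that position.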

Sequence of PAK4, construct: aa295-end, human (O96013 295-591, looked up): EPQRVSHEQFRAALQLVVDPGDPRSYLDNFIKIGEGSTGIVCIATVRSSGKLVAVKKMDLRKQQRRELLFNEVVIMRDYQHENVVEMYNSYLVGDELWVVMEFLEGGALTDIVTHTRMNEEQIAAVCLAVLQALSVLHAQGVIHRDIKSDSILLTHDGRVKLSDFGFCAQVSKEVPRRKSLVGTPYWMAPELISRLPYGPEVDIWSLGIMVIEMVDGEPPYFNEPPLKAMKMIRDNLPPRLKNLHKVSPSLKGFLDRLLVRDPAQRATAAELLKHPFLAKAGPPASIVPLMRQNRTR
Sequence of CDK4, construct: Full length, human (P11802 whole entry, looked up): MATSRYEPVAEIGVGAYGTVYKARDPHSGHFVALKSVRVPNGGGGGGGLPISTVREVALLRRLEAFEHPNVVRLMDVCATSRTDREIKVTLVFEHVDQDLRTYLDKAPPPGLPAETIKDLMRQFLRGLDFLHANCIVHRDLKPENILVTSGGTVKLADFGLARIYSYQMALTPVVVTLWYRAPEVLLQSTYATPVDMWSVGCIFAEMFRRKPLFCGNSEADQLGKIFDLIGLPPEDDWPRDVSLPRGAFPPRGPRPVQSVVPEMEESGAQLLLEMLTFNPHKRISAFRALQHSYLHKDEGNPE
Sequence of BRSK1, construct: Full length, human (Q8TDC3 whole entry, looked up): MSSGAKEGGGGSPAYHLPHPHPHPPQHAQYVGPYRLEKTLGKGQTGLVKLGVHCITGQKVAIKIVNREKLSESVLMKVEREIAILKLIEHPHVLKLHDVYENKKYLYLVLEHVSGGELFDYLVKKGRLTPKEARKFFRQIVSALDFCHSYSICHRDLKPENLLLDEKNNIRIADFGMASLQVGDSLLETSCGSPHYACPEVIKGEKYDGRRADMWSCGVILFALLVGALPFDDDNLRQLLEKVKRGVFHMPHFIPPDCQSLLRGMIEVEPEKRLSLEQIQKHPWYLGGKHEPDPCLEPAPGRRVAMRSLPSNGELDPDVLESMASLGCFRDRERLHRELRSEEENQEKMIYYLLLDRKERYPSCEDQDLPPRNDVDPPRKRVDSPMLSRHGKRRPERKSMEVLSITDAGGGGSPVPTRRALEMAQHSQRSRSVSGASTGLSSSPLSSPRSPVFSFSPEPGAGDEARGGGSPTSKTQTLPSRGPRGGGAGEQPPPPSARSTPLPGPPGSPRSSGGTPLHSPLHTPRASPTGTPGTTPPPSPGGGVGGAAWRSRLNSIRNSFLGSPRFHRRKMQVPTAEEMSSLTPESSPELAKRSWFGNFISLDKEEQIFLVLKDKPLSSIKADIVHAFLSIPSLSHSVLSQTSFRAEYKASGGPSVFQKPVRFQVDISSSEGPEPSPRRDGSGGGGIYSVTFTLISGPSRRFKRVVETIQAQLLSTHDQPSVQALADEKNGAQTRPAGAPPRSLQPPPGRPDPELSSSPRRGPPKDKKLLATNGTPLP

BRSK1, construct: Full length, human (from UniProt Q8TDC3)
relative phosphorylation
Settings | at +1 | at +2 | at +3 | at +4 | at -1 | at -2 | at -3 | at -4 | at -5
A fixed | 0.673 | 0.575 | 0.697 | 0.51 | 1.03 | 2.4 | 0.781 | 1.28 | 1.05
D fixed | 0.631 | 0.801 | 2.83 | 0.644 | 0.813 | 0.773 | 0.334 | 0.552 | 0.451
E fixed | 0.649 | 0.672 | 0.947 | 0.556 | 0.748 | 0.6 | 0.374 | 0.678 | 0.494
F fixed | 1.67 | 1.41 | 1.4 | 1.09 | 0.72 | 1.04 | 0.522 | 0.648 | 1.12
G fixed | 0.458 | 0.349 | 0.67 | 0.572 | 1.24 | 1.12 | 0.616 | 1.29 | 0.961
H fixed | 0.966 | 1.64 | 1.02 | 0.623 | 1.08 | 1 | 1.1 | 1.19 | 0.765
I fixed | 0.636 | 0.435 | 0.353 | 3.13 | 0.494 | 0.534 | 0.235 | 0.422 | 0.943
K fixed | 0.703 | 0.256 | 0.669 | 0.597 | 1.24 | 1.25 | 2.41 | 2.03 | 1.25
L fixed | 1.12 | 0.672 | 0.529 | 2.95 | 0.951 | 0.476 | 0.32 | 0.56 | 1.09
M fixed | 3.06 | 0.841 | 0.614 | 1.67 | 1.17 | 0.627 | 0.546 | 0.829 | 1.55
N fixed | 1.08 | 1.1 | 2.82 | 0.835 | 0.94 | 0.902 | 0.596 | 0.699 | 0.637
P fixed | 0.306 | 0.467 | 0.32 | 0.628 | 1.53 | 0.735 | 0.673 | 1.48 | 0.939
Q fixed | 1.18 | 1.13 | 1.15 | 0.714 | 0.996 | 0.734 | 0.755 | 0.985 | 0.829
R fixed | 0.985 | 0.357 | 0.729 | 0.575 | 1.34 | 1.7 | 6.17 | 2.19 | 2.01
V fixed | 0.73 | 0.381 | 0.405 | 0.861 | 0.75 | 1.01 | 0.311 | 0.678 | 0.857
W fixed | 0.787 | 2.02 | 0.804 | 0.59 | 0.696 | 1.12 | 0.667 | 0.774 | 0.911
Y fixed | 1.37 | 3.9 | 1.04 | 0.465 | 1.26 | 0.984 | 0.586 | 0.726 | 1.14
pThr fixed | 1.81 | 0.59 | 0.438 | 0.686 | 0.407 | 0.465 | 0.392 | 0.723 | 0.544
pTyr fixed | 0.633 | 0.948 | 0.928 | 0.475 | 1.75 | 0.606 | 0.657 | 0.678 | 0.776

PAK4, construct: aa295-end, human (from UniProt O96013)
relative phosphorylation
Settings | at +1 | at +2 | at +3 | at +4 | at -1 | at -2 | at -3 | at -4 | at -5
A fixed | 0.553 | 4.9 | 0.88 | 0.922 | 0.732 | 0.279 | 0.735 | 1.12 | 1.3
D fixed | 0.199 | 0.382 | 0.663 | 0.928 | 0.373 | 0.145 | 0.295 | 0.611 | 0.77
E fixed | 0.194 | 0.23 | 0.814 | 0.754 | 0.273 | 0.136 | 0.265 | 0.603 | 0.58
F fixed | 1.3 | 0.849 | 1.81 | 0.823 | 1.06 | 0.445 | 0.54 | 0.844 | 0.852
G fixed | 0.327 | 0.715 | 0.996 | 1.13 | 0.534 | 0.244 | 0.739 | 1.35 | 1.29
H fixed | 0.9 | 0.663 | 1.12 | 1.23 | 1.34 | 0.76 | 0.801 | 1.17 | 1.09
I fixed | 1.79 | 1.14 | 1.36 | 0.8 | 0.563 | 0.284 | 0.415 | 0.655 | 0.727
K fixed | 0.621 | 0.267 | 0.544 | 0.817 | 1.45 | 0.725 | 3.15 | 1.51 | 1.53
L fixed | 1.38 | 0.673 | 1.35 | 0.788 | 1.18 | 0.244 | 0.49 | 0.74 | 0.71
M fixed | 1.96 | 0.588 | 1.1 | 0.877 | 1.38 | 0.334 | 0.599 | 0.913 | 0.714
N fixed | 0.366 | 0.542 | 0.542 | 0.91 | 0.967 | 0.287 | 0.77 | 0.873 | 1
P fixed | 0.215 | 0.667 | 0.797 | 2.16 | 0.251 | 0.634 | 0.684 | 0.868 | 1.03
Q fixed | 0.694 | 0.433 | 0.682 | 1.02 | 1.06 | 0.641 | 0.96 | 0.902 | 0.897
R fixed | 0.964 | 0.297 | 0.615 | 0.983 | 2.76 | 10 | 4.61 | 1.98 | 1.81
V fixed | 1.47 | 2.1 | 1.07 | 0.761 | 0.579 | 0.282 | 0.413 | 0.66 | 0.75
W fixed | 2.49 | 0.806 | 1.45 | 1.21 | 1.19 | 0.417 | 0.876 | 1.27 | 0.987
Y fixed | 1.57 | 1.75 | 1.2 | 0.894 | 1.3 | 1.1 | 0.651 | 0.941 | 0.961
pThr fixed | 0.339 | 0.403 | 0.705 | 1.45 | 0.233 | 0.218 | 0.398 | 0.688 | 0.662
pTyr fixed | 0.514 | 0.767 | 1.34 | 1.19 | 0.261 | 0.232 | 0.402 | 0.579 | 0.65

CDK4, construct: Full length, human (from UniProt P11802)
relative phosphorylation
Settings | at +1 | at +2 | at +3 | at +4 | at -1 | at -2 | at -3 | at -4 | at -5
A fixed | 0.244 | 0.682 | 0.688 | 0.766 | 0.896 | 0.85 | 1.04 | 1 | 1.02
D fixed | 0.173 | 0.416 | 0.335 | 0.58 | 0.421 | 0.228 | 0.387 | 0.667 | 0.799
E fixed | 0.133 | 0.337 | 0.246 | 0.526 | 0.504 | 0.298 | 0.59 | 0.844 | 0.796
F fixed | 0.237 | 0.736 | 0.778 | 0.851 | 0.96 | 1.06 | 0.741 | 0.852 | 0.797
G fixed | 0.746 | 0.88 | 0.82 | 1.11 | 1.03 | 0.596 | 1.4 | 1.18 | 1.28
H fixed | 0.266 | 1.32 | 1.05 | 1.38 | 1.02 | 1.04 | 1.13 | 1.09 | 1.16
I fixed | 0.278 | 1.16 | 0.428 | 0.855 | 0.531 | 1.01 | 0.915 | 0.838 | 0.917
K fixed | 0.29 | 1.55 | 1.86 | 1.2 | 1.29 | 0.798 | 1.21 | 1.23 | 1.4
L fixed | 0.364 | 0.967 | 0.412 | 0.587 | 1.28 | 1.41 | 0.874 | 0.808 | 0.752
M fixed | 0.267 | 1.03 | 0.566 | 0.909 | 1.46 | 1.28 | 0.796 | 0.827 | 0.813
N fixed | 0.258 | 1.27 | 0.739 | 0.976 | 0.731 | 0.948 | 0.856 | 1.16 | 1.08
P fixed | 12.4 | 0.481 | 0.92 | 0.848 | 0.94 | 2.52 | 1.14 | 1.08 | 1.14
Q fixed | 0.275 | 0.789 | 0.652 | 0.801 | 1.27 | 0.76 | 0.704 | 0.832 | 0.822
R fixed | 0.324 | 2.59 | 4.48 | 2.2 | 1.9 | 1.39 | 2.5 | 1.52 | 1.6
V fixed | 0.302 | 1.01 | 0.417 | 0.636 | 0.624 | 0.891 | 0.889 | 0.658 | 0.68
W fixed | 0.239 | 0.624 | 1.54 | 1.42 | 0.996 | 0.88 | 0.87 | 1.28 | 0.782
Y fixed | 0.222 | 1.16 | 1.07 | 1.36 | 1.13 | 1.05 | 0.957 | 1.13 | 1.15
pThr fixed | 0.323 | 0.406 | 0.361 | 0.422 | 0.237 | 0.382 | 0.592 | 0.644 | 0.77
pTyr fixed | 0.482 | 0.391 | 0.503 | 0.432 | 0.357 | 0.356 | 0.592 | 0.544 | 0.934
